experiment: soluble on expression in E. coli; label from the status in PepcDB or PDB records

| Sequence | soluble on expression in E. coli |
| --- | --- |
| MGRKNSPSANKELNELIAQYETARAENRQLYLDGDQLADIADQYAAERKFNEAQEVITYGLHLHPDSTDLLVEQAYLYLDTGKIPLAKKVVESITDEYDTDVKMLKAELMLNEGQLENARNVLDTIEDADELETIINIVYLYMDMGYPEAAKEWLDKGAPRHGKKEDFMAVMADYLTGTNQLEAASTFYNQLIDIDPYNASYWVGLAKCRFAAEDCEKAIEACDFALAADDKCGEAYAYRGHSYFYLNNSDAAIEDYKKAIKYKALPPEMGYMFLGLTYSNKEAWKEADDYYQRVIDRFIEEGLGNSPLLIDTYTNKAVAASRLGKYEEAHQLCKKAIAIQPDDPAIYLAEGKLYIQENQKKKAVKSFDKALTMEPSAEMWYMVASAYSDAEYLYQAKLCFQEAYRIDPNYADIAEKLSVLSLMHNEIDDFFKYNNESEHPISEDIILELLSRPNQTEEGEQMLREVWERMKKEKGNN | not soluble |
| MGRLFVVNLEGKIYSCKHCKTHLATYEDIISKSFHCKHGKAYLFNKVANVSIGETEERLMMTGKHTVADIFCVSCGSIVGWKYETAHEKNQKYKEGKSVLERFKISGPDGSNYWVSSHGRHIGGSDADDA | soluble |
| MGRSPCFFKSFKGKLHKDRSPDPSTLASPHPSTEARRPVEAGSAEWTWGWMKRLPPASLSPGIAMSCYSGDSMLQKYKVKNAYRLHWQGREEPGASTFASLVFQ | soluble |
| MGRVVLWLLLLALLPAYAQETYDWIVVLGAAQYGGRPSPALERRLQAALHLFREGRGRRIAVAGGKAPEDLYSEGEVGCRYLAARGVPEEALFCETRSRSTYENLLFLKPHLEGRLLLVTDAPHLPRALFLARLLGLEAEGYPVPGNYPLGYWAKEALYRLWLYLGLRPQGVFSSRFNASRAAALEHHHHHH | not soluble |
| MGSDKIHHHHHHACDDNKDEFLDEFSTILSFRNCDEIEVEVYNTGENGEYQLIVNKSGAQLGTVTRASIDVMDKALLEIYNEQNGKDYQLYPEDCYVFNGDKQIEFGPNDTYQTRSVTLITDKILESNQQEGNFVIPFILQNSADSINAERKYVFLKPAVIVPNVAFEKTGYNLNIISDAMDANEIELNLPAVFSVDNKWNFSCTLEPDESLLTEYNEKNGVDYTMLSEEAYTLSNEGKILFTAGSKSASLTVTVKRNKLSYGNYVLPLKMTQCSSPYFEINPNKQSCLFGISYVPDESKLHPVTLSRGMTAIHPNREVEGKIDYMFDGNPDTYYHSDYLEEPGLPHWIQLNLDEPHTALMFEYQVRHNNNNGAPQRISVLGSMDGITFSKIMTIMEGFPTATKGTYKSPVLVGKEFKHIRLVVESTPAGNSFALAELKLHVN | not soluble |
| MGSDKIHHHHHHADGRYIEVTGTSEIEIVPDRIHYIIEIREYFEEEFDGRSKPEEYRTKISLDRIEQGLREVLHDAGISPNAVRTQEIGDYWRKQGQDFLVAKTFDITLLDFKQIDEILKRMDTKGIHTMRIGELENKDMLSYHQKGKIAALKAAQRKASYLVEALGKKLGPVIRIVEDEAGSSLPFSQSNVLSSSVVSFDSFRTIKKKYSMLVRFEIAD | not soluble |
| MGSDKIHHHHHHADILSCTVDGDILKAEPEIDNESVTLTVKSDADITNLAPVFTLTPGATITPASGSAFDFTTPRTYTVTSEDGHWTKTYTVRCIVSGVSTEYHFEHITMEPKNGRYQIFYDFTSNGDSVTWASGNAGFALTNNKLEPLDFPTMQDDNGYVGKCAKLVTRSTGSFGSGFGMPIAAGNLFIGTFDLLNAIPDARKGTRLGRPFDHVPTYLSGYYKYKAGESYKVNGEEVKGKKDQCDIYAIFYETDENVKYLDGFNGLTSPNLISVARISDQKETDEWTRFYIPFVAKPGKVIDKDKLAKGGYQLSIVFSSSLKGDVFEGAEGSTLWIDEVEIIQSGEN | not soluble |
| MGSDKIHHHHHHAELPLEEGVSVRFEIKRDGVMSRAPGDAALSVNRILILPFRKTDEASSNDAANFVPEYSAARQLDVNSFPAVVTMLTLSAASTYQLLVIGYNRSDYDFASGGGATKRFNIGSTGNPATLANLYLQPVNPTVVPEFFSCFGNGYRGTTLVGPIFKPSQINYVTGTLKRLVSGFTLEVTNVPAYVNSMTLIAEQLVTATRATDGTALTWQTAGDGGTKTLATQAPVSGKVSFNQFLLAIPDSRKTLFYLDVSYGIFTERYTVKLPDTPGVVSGNRIIFTPNHWVKVTGSYANINIGFTLAGNINLDDNAWDGLQ | not soluble |
| MGSDKIHHHHHHAIKNCQIHTFSLSHDSVSGLDTVKFTIDQLTGRIFNIDSLPFGTKIEKVVCKIGFANSSVIGGVEASPEAYPDSTYYLSSLSDSIDFSAPVKFVVHAYDQVTTKVYMAQVNIHQVVPDSMVWSMYANPMIGITVKDQKVVTYDYNGSENYFMYVKPAESGKPYQLYYAPVSAPKGWQSLSLTGLPSDGLLISQITEYNNALYVPATNGTLYRSEDGLTWSAVENAPSVKYVLGSVKQGTKQPSALATIVDQEGKLAFYAMNESMEWIAGDAVPSGFPVTGFSNLQYAAMYHEYLMTASGRTVDNQVVNTTWATMDGISWALMASGDANFTKREGAMITNYDDKFFLIGGIDASNKALKDMYQSIDYGISWSLIDSMVVLPTDYAARGFSSIIVDKENFVNIFGGKISTGSNDLNQLWRGRINRLIPKE | not soluble |
| MGSDKIHHHHHHAISVGNLTFSLPAEADFASKRVVNNNKSARLYRIAVSAIDRPGGSEVRSRPVDGELLFAPRQLVLQAGESEYFKFYYHGPRDNRERYYRVSFREIPTRNLTRRSPTGGEVSMEPVVVMDTILVVRPREVQFKWSFDKVAGTVSNTGNTWFKLLIKPGCDSTEEEGDAWYLRPGDVVRQPALRQPGNHYLVYNDKFIKISDTCPLKPRPAE | not soluble |
| MGSDKIHHHHHHAMFPERYVSEESAARADTINFRLASAGEAKRLIAAKDSYTANWSPFDIAARLENPEGKREDLVSLAVREVREWTAEEAQQIEQIRKNLNDTIRKYGYRIPFPKEIVLVKTTMKDEGGAGGYTRSNWIALTDATFQRGTEASHTRLLVHETFHILTRLNPGFKKKLYRAIDFNILPKEIEFPEDIRKSRISNPDVSRCDSYATFTIDGKPQNCTMIIYTNRPYTTGKFYQYINVGLIPLDESFKPLRESGKTVIYPLQKATDFFDKVGRNTGYVIDPEEVLADNFAIALLNTPNVHTPELQKKVQELLK | not soluble |
| MGSDKIHHHHHHANTQTNIQLERTSSDIEHALYYASFAANSHNTQSWKVNLDPKQKRLGVFLNNKRSLNVVDPNNRELYISIGCYIQSLKKSFEAYGYNVSISNIAPSKENKYQVVLINYQKLKNNKINNKQLDIIQKRHTDKRKFQKKPINRTVVSSLIKKYNNVYYYAKGSKTFKYLQKGSLAAAAKQYKNQDFLKEQGKWLRFSNQEVEKKQDGISGDMLGLNPIIKTLYYLTSNHKNATSNNFVKQSKNTLINQVENCAGFFVITGEQNISKWIAVGEKSQAFWYDCVRNNIAVQPISAMIEIPSYNQKLQQNLGKSQPVQLILRVGYVNSYGKNVGPRRNLKDYITVKK | not soluble |
| MGSDKIHHHHHHAQKGEKTLTVEVSNEWTQNKTDEPIVIDLNNLKAGFNIKSATVWEGNKEIPSQLDDLNGDARADELAFLIDMPAKSNKSFRIILSSEKSEKNYPARTYAQMKAYGHNNKFANITGFSAAGTENVYSFVYHHGPAIESELVAYRIYFNEKQTVDPYSKVNKRLEIKETCFYPTKAQRANGYGDDALRVYNSGGVGALKGWNGTEATHIKPVVNRTERVLASGPVRAIVEAEVIGWEYQGNDLNMINRYTIYGGHRDMKVDVLFDRPLKQEVFAAGVQILKEGGHMSDHKGLTGSWGTDWPVTDTIGYVKETTGMGTFIPKYIGKEVQDGSNYLYTLQAPGQQHFHYYVTFTSKKESFGFKDMKDWFNYLPQWRKELEHPCKITIK | not soluble |
| MGSDKIHHHHHHAQQTSEVDLIDIAGGMEKLTELKVSDLGKTIRYIPLETTDSCLIGDFPNIKLLDDKIMVYNGKQCLLFDKETGKFICSVGHRGDDPEAYSSTCGYLNPKNQLLYFNRDPNQLVKYNQKGNFAGVITIPSPETSTGNIQINRPGMNGFVFSDSIIIGHYVGGLGQRCPSSVLYFSDKGNYIDTIPNIIPELGTGQVGDINNISVRKGFGLLEGIIQIQYNNGKQSICVPGYTALWKCNDEIRFKELFTDTIYTLKHNQLEKYIIFNTGKYYWPASERTLTDNNSDRIMISYAIENDKLLYFQFIRGLYTDKHILYNGIYDKNTKVTNIALAENNFVDDLTHFMPFTPSFLNEKGECASLVQAADILTWLEEHPEVKIEKELGVLKNLNEESNPVVVLVK | not soluble |

— the DeepSol protein solubility set
